The values below come from the nanobody polyreactivity screen of Harvey et al. (2022).

The nature of this data set: yeast display, Sf9 membrane polyspecificity reagent, FACS + sequencing; frameworks hold sequencing errors. In short, it runs like this:
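Nanobodies from a synthetic yeast display library (Saccharomyces cerevisiae BJ5465), induced 36–48 hours with galactose, were stained 1 hour at 4 °C with 10% biotinylated, detergent-solubilized Sf9 membrane reagent, enriched on streptavidin microbeads, then FACS-sorted. Anti-HA (expression) and streptavidin (reagent binding) fluorescence set low and high (top ~1%) gates. Polyreactivity labels come from the gate of origin. Genes were colony-PCR amplified, MiSeq 2 × 250 sequenced and filtered by CDR length.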
Consider “QVQLVESGGGLVQAGGSLRLSCAASGITSRPNAMGWYRQAPGKERELVAAISGSGGRTYYADSVKGRFTISRDNAKNTVYLQMNSLKPEDTAVYYCNAVGGGRWYEYWGLGTQVTVSS”, for which the “polyreactivity (PSR sort gate)” value was “high polyreactivity”.
The same measure for “QVQLVESGGGLVQAGGSLRLSCAASGRIFRYYAMGWYRQAPGKERELVAAISGTGGNTYYADSVKGRSTISRDNAKNTVYLQMNSLKPEDTAVYYCAADQEWYYYFDSFAYYILDYWGQGTQVTVSS”: “high polyreactivity”; for “QVQLVESGGGLVQAGGSLRLSCAASGRTLARNAMGWYRQAPGKERELVAGITSGGSTDYADSVKGRFTISRDNAKNTVYLQMNSLKPEDTAVYYCNRDAGPGGDYWGQGTQVTVSS”: “low polyreactivity”.
“QVQLVESGGGLVQAGGSLRLSCAASGSTFYTYDMGWYRQAPGKERELVASITSGGSTNYADSVKGRFTISRDNAKNTVYFQMYCMKPVDTAVYYCAVGTYTIYSGTLYDYKYYWGQGTVVTVSS”: the “polyreactivity (PSR sort gate)” value is recorded as “low polyreactivity”.
The value for “QVHLVESGGGLVQAGGSLRLRSAASGRTFGWNVMGWYRQAPGKERELVAAISGSGGSTYYADSVKGRFTISRDNAKNTVYLQMNSLKPEDTAVYYCDALYGPGREYDYWGQGTQVTVSS” was “low polyreactivity”.
As for “QLQLVESGGGLVQAGGSLRLSCAASGSTFTDYAMGWYRQAPGKERELVAAISWSGGSTYYADSVKGRFTISRDNAKNTVYLQMNSLKPEDTAVYYCAFRYHGYDYWGQGTQVTVSS”, the “polyreactivity (PSR sort gate)” value was “high polyreactivity”.
The same measure for “QVQLVESGGGLVQAGGSLRLSCAASGSSFNINAMGWYRQAPGKERELVAAISWSGDITYYADSVKGRFTISRDNAKNTVYLQLNSLKPEDTAVYYCNTDDPGNYWYAEYDYWGQGTQVTVSS”: “low polyreactivity”; for “QVQLVESGGGLVQAGGSLRLSCAASGSTFFVNAMGWYRQAPGKERELVAAISTSGGRTYYADSVKGRFTISRDNAKNTVYLQMNSLKPEDTAVYYCAAYLRSPKGYYYWGQGTQVTVSS”: “high polyreactivity”.
The value for “QVQLVESGGGLVQAGGSLRLSCAASGRTFDSNAMGLYRQAPGKERELVAAISYGGGTTHYADSVKGRFTISRDNAKNTVYLQMNSLKPEDTAVYYCAADPEHQWESVTIGEYDYWGQGTQVTVSS” was “low polyreactivity”; that for “QVQLHESGGGLLQAGGGLRLSCAASGSISSTGFMCWYRQAPGKEREPVAAIAPGTTTYYADSVKGRFTISRDNAKNSVYLQKNSLRPEDTAVYYCAVFTDNRVAFLYWGQGTQVTVSS” was “low polyreactivity”; that for “QVQLVESGGGLVQAGGSLRIICAASGRTFRGYAMGWYRQAPGKERELVAAITSGGSTNYADSVKGRFTISRDNAKNTVYLQMHSLKPEDTAVYYCNRDTSKYGLWRYIYDYWGQGTQVTVSS” was “low polyreactivity”.
The same measure for “QVQLVESGGGLVQAGGSLRLSCAASGFIFLENDMGCYRQAPGKERELVASINSGSDTNYADSVKGRFTISRDNAKNTVYLQMNSLKPEDTAVYYCNASYNGVPARYDYWGQGTQVTVSS”: “low polyreactivity”.
Turning to “QVQLVESGGGLVHAGGSLRLSCAASGRIFNYYAMGWYRQAPGKERALVAAISSGGSTYYADSEKGRFTISRDNAKNTVYLQMHSLKPEDTAVDYCNRVPRGVSRQDDYWGQGTQVTVSS”, the “polyreactivity (PSR sort gate)” value is on record as “high polyreactivity”.
As to “QVQLVESGGGLVQAGGSLRLSCAASGRTFKYNAMGWYRQAPGKERELVATISGSGGRTYYADSVKGRFTISRDNAKNTVYLQMNSLTPEDTAVYYCAAVPSYHSTSPFYYWGLGTQVTVSS”, the “polyreactivity (PSR sort gate)” value is “high polyreactivity”.
Regarding “QVQLVESGGGLVQAGGSLRLSCAASGSTFISYAMGWSRQAPGKERELVAAISSSTGRTYYADSVKGRVTISRDNAKNTVYLQMNSLKPEDTAVYYCNAVHRYERDYWGQGTQVTVSS”, the “polyreactivity (PSR sort gate)” value is recorded as “high polyreactivity”.
For “QVQILESGGGLVQAGGSLRVSCAASGSTFSYYAMGWYRQAPGKERELVAAIRSSGGSTYYADSVKGRFTISRDNAKNTVYLQMNSLKPEDTAVYYCAARRSVGYRRYDYWGQGTQVTVSS”, the “polyreactivity (PSR sort gate)” value was “high polyreactivity”.
The same measure for “QVQLVESGGGLVQAGGSLRLSCAASGNTFGDYAMGWYRQAPGKERELVAAISRSGGSTSYADSVKGRFTISRDNAKNTVYLQMNSLKPEDTAVYYCAAYWQRFGYDYWGQGTQVTVSS”: “low polyreactivity”.
“QVQLEESGGGLVQAGGSLRLTCAASGRIFFQNTIGWYRQAPGQERELVAAITSDGSTYYADSVKGRFTISRDNAKNTVYLQMNSLKPEDTAVYYCAAEISYRWWYKLGFTSFDYWGQGTQVTVSS”: the “polyreactivity (PSR sort gate)” value is listed as “low polyreactivity”.
The value for “QVQLVESGVGLVQAGGSHRLSCAASGFTFLINAMGWYRQEPWKERELVAAIRSGGSTNYADSVKGRFTISRDNAKNTVYLQMNSLKPEETAVYYCAARRYYPDKYRYGYWGQGTQVTVSS” was “high polyreactivity”.
The same measure for “QVQLVESGGGLVQAGGSLRLSCAASGSTFGRNAMGWYRQAPGKERELVASITSRGTSTYADSVKGRFTISRDNAKNTVYLQMNSLKPEDTAVYYCAAGVISYRRRSYYYWGQGTQVTVSS”: “high polyreactivity”; for “QVQLVESGGGLVQAGGSLRLSCASSGLIFAYYGMVWYRQAPGKEREFVAAISWRGGSTYYADSVKGRFTISRDNAKNTVYLQMNSLKPEDTAVYYCAARPLYGSARTNYGYWGQGTQVSVSS”: “high polyreactivity”; for “QVQLVESGGGLVQAGGSLRLSCAASGSTFQSNARGWYRQAPGKERELVASITSSGVSTYYADSVKGRFTISRDNAKNTVYLQMNSLKPEDTAVYYCAASSYDAYDYGFRFDYWGQGTQVTVSS”: “low polyreactivity”.
The value for “QVQIVESGGVLVQAGGSLRLSCAASGLTLKRYAMGWYRQAPRKERELVASITGSGGSTYADTVKARFTISRDNAKNTVYLHMNSLNPEDTAVYYCAKDTRYEYVGSEYCFWGQGTQVTVSS” was “low polyreactivity”.
Consider “QVQLVESGGGLLQAGGSLRLSCAASGSIFERNAIGWYRQAPGKERELVAVITRSGGSTYYADSVKGRFTISRDNAKNTVYLQMNSLKREDTAVYYCNARTAYFYGLDYWGQGTQVTVSS”, for which the “polyreactivity (PSR sort gate)” value is listed as “high polyreactivity”.
For the sequence “QVQLEESGGGLVQAGGSLRLSCAASGSTYWLYPMGGYRQATGKERELVATISERGGSTYYADSVKGRFTISRDNAKNTVYLQMNSLKPEDTAVYYCAAHVYGSWPDYDYWGQGTQVSVSS”, the “polyreactivity (PSR sort gate)” value was “low polyreactivity”.
The value for “QVQLVESGGGLVQAGGSLRLSCAASGRIFWSYAMGWYRQAPGKERELVAAINSGGSTNYADSVKGRFTISRDNAKNTVYLQMNSLKPEDTAVYYCAAGFYYVYVWLGEYWVQGTQVTVSS” was “low polyreactivity”.
For “QVQLVESGGGLVQAGGSLRLSCAASGRTFGSYAMGWYRQAPGKERELVAAISSGGRTYYADSVKGRFTISRDNAKNTVYLQMNSLKPEDTAVYYCAARLISYKTPGGYNYWGQGTQVTVSS”, the “polyreactivity (PSR sort gate)” value is “high polyreactivity”.
The same measure for “QVQLVESGGGLVQAGGSLRLSCAASGNTFYYYAMGWYRQAPGKERELVAAIRRSGGTTYYADSVKGRFTISRDNAKNTVYLQMNSLKPEDTAVYYCAARVYRSYANVEGNYWGQGTQVTVSS”: “high polyreactivity”; for “QVQLVESGGGLVQAGGSLRLSCAASGSIFRNYAMGWYRKAPGKERELVADSTYYADSVKGRFTISRDNAKNTVYLQMNSLKPEDTAVYYCNTVYATRYDYWGQGTQVTVSS”: “high polyreactivity”.
The same measure for “QVQIVESGGGLFQAGGSLRLSCAASGGIFREYAMGWSRQAPGKERELVAVISDSGAGTYYADSVKGRFTISRDNAKNTVSLQMNSLKPEDTEVYYCAQGTARLDFPDMDPWGQGTQVTVSS”: “low polyreactivity”; for “QVQLVESGGGLVQAGGSLRLSCAASGLTLSGYAMGWYRQAPGKERELVAAISSTGGSTYYADSVKGRFTISRDNAKNTVYLQMNSLKPEDTAVYYCAKGFSPTRVRLRYPRYDTYNHWGQGTQVTVSS”: “high polyreactivity”.
As to “QVQLVESGGGLVQAGGSLRLSCAASGIIFSYNAMGWYRQAPGKERELVAANNSSGGSTNYADSVKGRFTISRDNAKNTVYLQMNSLKPEDTAVYYCAARDATYYGVWRYYGIDDYWGQGTQVTVSS”, the “polyreactivity (PSR sort gate)” value is given as “low polyreactivity”.
The value for “QVQHVESGGGLVQAGGSLRLRCAASGRTFKKYAMGWYRQAPGKAWELVAAITGSGGSTYYADSVKGRFTFSRDNAKNTVYLQMNRLKPEDTAVYYCAAYAYGVWQSQDGGNYWGQGTQVTVSS” was “low polyreactivity”; that for “QDQLVESGGGLVQAGGSLRLSCAASGLTIIFNAMGWYRQAPGKERELVADISSGVNTNYADSVKGRFTISRDNAKNTVYLQMNSLKPEDTAVYYCAARLAQSTGYGYWGQGTQVTVSS” was “low polyreactivity”; that for “QVQLVESGGGLVHAGGSLRLSCAASGSIFLLYAMGWYRQAPGKERELVAAITSSGGSTNYADSVKGRFTISRDNAKNTVYLQMNSLKPEDTAVYYCATAPYAYTILGSRFDYWGQGTQVTVSS” was “low polyreactivity”.
The same measure for “QEQLQESGGGQVQAGGSLLLSCAASGNIIRYYYMGWYRQAPGKERELVAAINVGAITYYADSVKGRFSISRDNAKNTVYLPMNSLTPEDTAVYYCAVDQYSEAYYDYWGQGTQATVSS”: “high polyreactivity”.
The value for “QVQLVESGGGLVQAGGSLRLSCAASGRIFRQNAMGWYRQAPGKERELVAAIDWNGTSTYADSVKGRFTISRDNAKNTVYLQMNSLKPEDTAVYYCNASESKPTFEYDYWGQGTQVTVSS” was “low polyreactivity”; that for “QVQLVESGGGLVQAGGSLRLSCAASGRIFGVYAMGWYRQAPGKERELVAAISSTGGSTYYADSVKGRFTISRDNAKNTVYLQMNSLKPEDTAVYYCEYDYWGQGTQVTVSS” was “low polyreactivity”.
With “QVQLVESGGGLVQAGGSLRLSCAASGRIFTNYAMGWYRQAPGKERELVAAINWDGGSTYYADSVKGRFTISRDNAKNTVYLQMNSLKPVDTAVYYCAAQGGLSEYDYWGQGTQVTVSS”, the “polyreactivity (PSR sort gate)” value is on record as “low polyreactivity”.
On to “QVQLVESGGGLVQAGGSLRLSCAASGFIFSSNAMGWYRQAPGKERELVAGITASGVSTYYADSVKGRFTISRDNAKNTVYLQMNSLKPEDTAVYYCAALGLYYYFYSQYIDWDDYWGQGTQVTVSS”, for which the “polyreactivity (PSR sort gate)” value is given as “low polyreactivity”.
The value for “QVQLVESGGGLVQAGGSLRLSCAASGFTFGNNAMGWYRQAPGTERELVAAISYGGGRTYYADSVKGRFTISRDNAKNTVYLQMNSLKPEDTAVYYCAKDPKYPLSGGYDYWGQGTQVTVSS” was “low polyreactivity”.
